B1: RHOBTB3 (parent)
chain: GGADIIVIKYNVNDKFSFHEVKDN
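Also: lentivirally expressed fusions sorted by FACS into six bins by GFP to DsRed ratio, PSI derived from sequencing read proportions per bin multiplied by bin number.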

This series covers variants of B1. Briefly: protein stability index of a GFP-peptide fusion (GPS, HEK-293T) (PSI 1-6); higher = more stable. As to conditions: c terminus: a fixed tail appended.
Take GGADIIPIKYNVNDKFSFHEVKDN [V7P]: the protein stability index came out at 4.13.
Regarding GGADIISIKYNVNDKFSFHEVKDN [V7S], the protein stability index was determined as 2.17.
Turning to GGADIIGIKYNVNDKFSFHEVKDN [V7G], the protein stability index came out at 2.5.
Consider GGADIIKIKYNVNDKFSFHEVKDN [V7K], for which the protein stability index was 2.33.
Next, GGADIIIIKYNVNDKFSFHEVKDN [V7I]: 2.46.
For GGADIIAIKYNVNDKFSFHEVKDN [V7A], the protein stability index worked out at 2.17.
Consider GGADIIRIKYNVNDKFSFHEVKDN [V7R], for which the protein stability index came out at 1.67.
For the variant GGADIINIKYNVNDKFSFHEVKDN [V7N], the protein stability index was found to be 2.85.
For the variant GGADIIYIKYNVNDKFSFHEVKDN [V7Y], the protein stability index turned out to be 2.29.
Consider GGADIIFIKYNVNDKFSFHEVKDN [V7F], for which the protein stability index turned out to be 3.21.
As for GGADIIHIKYNVNDKFSFHEVKDN [V7H], the figure is 2.28.
Take GGPDIIVIKYNVNDKFSFHEVKDN [A3P]: the protein stability index turned out to be 2.35.
As for GGSDIIVIKYNVNDKFSFHEVKDN [A3S], the figure is 1.74; as for GGKDIIVIKYNVNDKFSFHEVKDN [A3K], 2.65.
Regarding GGIDIIVIKYNVNDKFSFHEVKDN [A3I], the protein stability index turned out to be 3.1.
In the case of GGWDIIVIKYNVNDKFSFHEVKDN [A3W], the protein stability index was 2.05.
In the case of GGADIIVIKYNVNDKFFFHEVKDN [S17F], the protein stability index was determined as 3.05.
As for GGADIIVIKYNVNDKFQFHEVKDN [S17Q], the figure is 2.36; as for GGADIIVIKYNVNDKFTFHEVKDN [S17T], 2.25.
Turning to GGADIIVIKYNVNDKFHFHEVKDN [S17H], the protein stability index is 2.69.
Consider GGADIIVIKYNVNDKFEFHEVKDN [S17E], for which the protein stability index was found to be 2.94.
On to GGADIIVIKYNVKDKFSFHEVKDN [N13K], for which the protein stability index was 2.92.
Next, GGADIIVIKYNVVDKFSFHEVKDN [N13V]: 3.83.
Turning to GGADIIVIKYNVIDKFSFHEVKDN [N13I], the protein stability index is 2.93.
As for GGADIIVIKYNVDDKFSFHEVKDN [N13D], the figure is 1.88; as for GGADIIVIKYNVHDKFSFHEVKDN [N13H], 2.57.
Next, GGADIIVIKYNVEDKFSFHEVKDN [N13E]: 2.71.
Next, GGADIIVIKYNVTDKFSFHEVKDN [N13T]: 1.57; GGADIIVIKYNVFDKFSFHEVKDN [N13F]: 3.47; GGADIIVIKYNVADKFSFHEVKDN [N13A]: 3.68.
Take GGADIIVIKYNVLDKFSFHEVKDN [N13L]: the protein stability index came to 2.87.
Consider GGADIIVIKYNVNDLFSFHEVKDN [K15L], for which the protein stability index was 3.48.
Turning to GGADIIVIKYNVNDDFSFHEVKDN [K15D], the protein stability index came to 4.13.
In the case of GGADIIVIKYNVNDHFSFHEVKDN [K15H], the protein stability index was found to be 2.87.
With GGADIIVIKYNVNDEFSFHEVKDN [K15E], the protein stability index was 2.03.
As to GGADIIVIKYNVNDFFSFHEVKDN [K15F], the protein stability index is 2.8.
Take GGADIIVIKNNVNDKFSFHEVKDN [Y10N]: the protein stability index was 2.03.
Turning to GGADIIVIKGNVNDKFSFHEVKDN [Y10G], the protein stability index came out at 2.19.
As to GGADIIVIKQNVNDKFSFHEVKDN [Y10Q], the protein stability index came to 1.62.
Next, GGADIIVIKDNVNDKFSFHEVKDN [Y10D]: 3.68.
Next, GGADIIVIKCNVNDKFSFHEVKDN [Y10C]: 3.4; GGADIIVIKMNVNDKFSFHEVKDN [Y10M]: 1.94; GGADIIVIKHNVNDKFSFHEVKDN [Y10H]: 1.92.
As to GGADSIVIKYNVNDKFSFHEVKDN [I5S], the protein stability index worked out at 3.31.
For the variant GGADQIVIKYNVNDKFSFHEVKDN [I5Q], the protein stability index was found to be 3.45.
For the variant GGADDIVIKYNVNDKFSFHEVKDN [I5D], the protein stability index is 4.15.
For the variant GGADKIVIKYNVNDKFSFHEVKDN [I5K], the protein stability index stood at 2.67.
As for GGADHIVIKYNVNDKFSFHEVKDN [I5H], the protein stability index amounted to 2.39.
For GGADWIVIKYNVNDKFSFHEVKDN [I5W], the protein stability index was 2.59.
As for GGADFIVIKYNVNDKFSFHEVKDN [I5F], the protein stability index worked out at 1.78.
With GGADNIVIKYNVNDKFSFHEVKDN [I5N], the protein stability index turned out to be 3.69.
GGADRIVIKYNVNDKFSFHEVKDN [I5R]: the protein stability index was found to be 2.34.
As for GGADVIVIKYNVNDKFSFHEVKDN [I5V], the figure is 1.43; as for GGADPIVIKYNVNDKFSFHEVKDN [I5P], 3.58.
With GGARIIVIKYNVNDKFSFHEVKDN [D4R], the protein stability index turned out to be 4.21.
As for GGAFIIVIKYNVNDKFSFHEVKDN [D4F], the protein stability index was 1.97.
As to GGAKIIVIKYNVNDKFSFHEVKDN [D4K], the protein stability index amounted to 4.09.
As for GGATIIVIKYNVNDKFSFHEVKDN [D4T], the protein stability index was 3.79.
For the variant GGAVIIVIKYNVNDKFSFHEVKDN [D4V], the protein stability index was found to be 3.66.
Take GGAWIIVIKYNVNDKFSFHEVKDN [D4W]: the protein stability index turned out to be 2.41.
In the case of GGASIIVIKYNVNDKFSFHEVKDN [D4S], the protein stability index turned out to be 2.66.
Take GGAGIIVIKYNVNDKFSFHEVKDN [D4G]: the protein stability index was 3.68.
Next, GGADIIVIKYNVNDKFSFHFVKDN [E20F]: 2.75; GGADIIVIKYNVNDKFSFHSVKDN [E20S]: 2.76; GGADIIVIKYNVNDKFSFHDVKDN [E20D]: 3.45.
As to GGADIIVIKYNVNDKFSFHCVKDN [E20C], the protein stability index worked out at 3.82.
Next, GGADIIVIKYNVNDKFSFHVVKDN [E20V]: 2.1; GGADIIVIKYNVNDKFSFHPVKDN [E20P]: 1.33.
Take GGADIIVIKYNVNFKFSFHEVKDN [D14F]: the protein stability index is 3.63.
As to GGADIIVIKYNVNSKFSFHEVKDN [D14S], the protein stability index worked out at 3.4.
Next, GGADIIVIKYNVNAKFSFHEVKDN [D14A]: 3.34.
As for GGADIIVIKYNVNIKFSFHEVKDN [D14I], the figure is 4.53.
As to GGADIIVIKYNVNTKFSFHEVKDN [D14T], the protein stability index turned out to be 2.67.
On to GGADIIVIKYNVNYKFSFHEVKDN [D14Y], for which the protein stability index is 3.38.
Consider GGADIIVIKYNVNDKRSFHEVKDN [F16R], for which the protein stability index was 1.6.
For GGADIIVIKYNVNDKHSFHEVKDN [F16H], the protein stability index was 1.53.
Take GGADIIVIKYNVNDKISFHEVKDN [F16I]: the protein stability index turned out to be 2.88.
On to GGADIIVIKYNVNDKGSFHEVKDN [F16G], for which the protein stability index is 2.74.
With GGADIIVIKYNVNDKWSFHEVKDN [F16W], the protein stability index was found to be 4.02.
Regarding GGADIIVIKYNVNDKVSFHEVKDN [F16V], the protein stability index came to 1.98.
As for GGADIIVIKYNVNDKFSFHEPKDN [V21P], the figure is 2.01; as for GGADIIVIKYNVNDKFSFHEEKDN [V21E], 1.37.
On to GGADIIVIKYNVNDKFSFHEAKDN [V21A], for which the protein stability index came to 3.15.
As for GGADIIVIKYNVNDKFSFHEMKDN [V21M], the figure is 3.97; as for GGADIIVIKYNVNDKFSFHEIKDN [V21I], 2.23.
In the case of GGADIIVIKYNVNDKFSFHECKDN [V21C], the protein stability index turned out to be 1.96.
Next, GGADIIVIKYNVNDKFSFHERKDN [V21R]: 2.42.
With GGADIIVIKYNVNDKFSFHEFKDN [V21F], the protein stability index was 3.01.
As for GGADIIVIKYNVNDKFSFHEWKDN [V21W], the figure is 2.15; as for GGADIIVIKYPVNDKFSFHEVKDN [N11P], 3.2; as for GGADIIVIKYEVNDKFSFHEVKDN [N11E], 1.76.
As for GGADIIVIKYSVNDKFSFHEVKDN [N11S], the figure is 2.23; as for GGADIIVIKYRVNDKFSFHEVKDN [N11R], 2.45; as for GGADIIVIKYDVNDKFSFHEVKDN [N11D], 2.29.

(Values after the supplement of paper PMC10567573.)
